B1: C-terminally FLAG-tagged human Gas6 recombinant protein (hGas6-F) (ligand, not shown: small tags and cut ends)
chain: ALLPAREATQFLRPRQRRAFQVFEEAKQGHLERECVEELCSREEAREVFENDPETDYFYPRYLDCINKYGSPYTKNSGFATCVQNLPDQCTPNPCDRKGTQACQDLMGNFFCLCKAGWGGRLCDKDVNECSQENGGCLQICHNKPGSFHCSCHSGFELSSDGRTCQDIDECADSEACGEARCKNLPGSYSCLCDEGFAYSSQEKACRDVDECLQGRCEQVCVNSPGSYTCHCDGRGGLKLSQDMDTCEDILPCVPFSVAKSVKSLYLGRMFSGTPVIRLRFKRLQPTRLVAEFDFRTFDPEGILLFAGGHQDSTWIVLALRAGRLELQLRYNGVGRVTSSGPVINHGMWQTISVEELARNLVIKVNRDAVMKIAVAGDLFQPERGLYHLNLTVGGIPFHEKDLVQPINPRLDGCMRSWNWLNGEDTTIQETVKVNTRMQCFSVTERGSFYPGSGFAFYSLDYMRTPLDVGTESTWEVEVVAHIRPAADTGVLFALWAPDLRAVPLSVALVDYHSTKKLKKQLVVLAVEHTALALMEIKVCDGQEHVVTVSLRDGEATLEVDGTRGQSEVSAAQLQERLAVLERHLRSPVLTFAGGLPDVPVTSAPVTAFYRGCMTLEVNRRLLDLDEAAYKHSDITAHSCPPVEPAAA
modifications: gamma-carboxylated glutamic acid residues in the Gla domain (producer cells co-express rat VKOR and human GGCX); positions not given

What was measured:
[1] = target: T1, human Sky forcedly expressed on HEK293F reporter cells (human, UniProt Q06418 41-890); assay: cell-based or functional assay
T1 sequence (looked up): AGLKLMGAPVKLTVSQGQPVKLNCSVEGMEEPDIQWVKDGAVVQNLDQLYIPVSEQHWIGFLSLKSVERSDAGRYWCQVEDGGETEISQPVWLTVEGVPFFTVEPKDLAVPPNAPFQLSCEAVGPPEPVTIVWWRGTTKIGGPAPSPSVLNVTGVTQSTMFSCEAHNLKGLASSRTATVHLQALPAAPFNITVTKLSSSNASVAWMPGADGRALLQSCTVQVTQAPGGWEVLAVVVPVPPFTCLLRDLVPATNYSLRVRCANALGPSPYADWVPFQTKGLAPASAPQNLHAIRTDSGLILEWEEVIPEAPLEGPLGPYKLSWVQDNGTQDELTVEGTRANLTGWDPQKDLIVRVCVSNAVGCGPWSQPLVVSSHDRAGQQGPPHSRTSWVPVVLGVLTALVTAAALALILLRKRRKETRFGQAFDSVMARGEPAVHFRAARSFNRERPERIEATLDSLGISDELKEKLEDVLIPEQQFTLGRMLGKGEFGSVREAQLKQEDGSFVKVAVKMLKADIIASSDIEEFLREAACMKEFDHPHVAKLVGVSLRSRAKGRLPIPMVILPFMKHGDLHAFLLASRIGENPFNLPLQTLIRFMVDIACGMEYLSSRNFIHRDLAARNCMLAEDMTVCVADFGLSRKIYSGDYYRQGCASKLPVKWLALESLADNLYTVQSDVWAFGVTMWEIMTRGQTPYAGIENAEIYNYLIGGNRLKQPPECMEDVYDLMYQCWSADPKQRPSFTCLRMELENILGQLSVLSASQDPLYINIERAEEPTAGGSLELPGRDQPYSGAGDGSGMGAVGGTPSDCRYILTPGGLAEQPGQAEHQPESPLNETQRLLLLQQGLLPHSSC

[2] = target: T2, human Mer forcedly expressed on HEK293F reporter cells (human, UniProt Q12866 21-999); assay: cell-based or functional assay
T2 sequence (looked up): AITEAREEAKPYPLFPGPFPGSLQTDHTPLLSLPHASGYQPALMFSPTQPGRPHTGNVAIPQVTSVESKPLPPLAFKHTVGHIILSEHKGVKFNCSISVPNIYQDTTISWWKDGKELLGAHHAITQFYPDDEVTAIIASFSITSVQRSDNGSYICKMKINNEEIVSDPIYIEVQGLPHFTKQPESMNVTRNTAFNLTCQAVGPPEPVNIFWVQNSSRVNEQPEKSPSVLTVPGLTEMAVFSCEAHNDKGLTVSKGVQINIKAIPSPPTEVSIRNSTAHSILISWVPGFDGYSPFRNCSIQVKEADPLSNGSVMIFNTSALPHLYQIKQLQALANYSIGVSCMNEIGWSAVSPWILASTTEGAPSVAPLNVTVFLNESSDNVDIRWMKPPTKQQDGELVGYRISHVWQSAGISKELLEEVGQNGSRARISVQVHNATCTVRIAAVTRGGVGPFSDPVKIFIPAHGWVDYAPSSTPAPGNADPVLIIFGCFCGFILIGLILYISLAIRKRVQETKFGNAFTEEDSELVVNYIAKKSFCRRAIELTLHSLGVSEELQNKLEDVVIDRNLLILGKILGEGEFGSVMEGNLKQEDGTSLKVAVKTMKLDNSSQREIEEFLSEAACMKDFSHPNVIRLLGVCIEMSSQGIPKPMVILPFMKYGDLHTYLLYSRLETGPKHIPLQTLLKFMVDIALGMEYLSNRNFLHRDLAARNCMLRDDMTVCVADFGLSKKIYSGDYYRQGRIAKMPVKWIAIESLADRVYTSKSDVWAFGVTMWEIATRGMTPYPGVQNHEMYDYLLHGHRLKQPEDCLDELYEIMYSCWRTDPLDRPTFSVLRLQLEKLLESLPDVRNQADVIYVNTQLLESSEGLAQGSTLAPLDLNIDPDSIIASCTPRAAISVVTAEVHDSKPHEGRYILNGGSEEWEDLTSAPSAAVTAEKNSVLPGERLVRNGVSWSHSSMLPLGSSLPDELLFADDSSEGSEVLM

[3] = target: B1; assay: ELISA, hGas6-F captured by anti-FLAG, anti-human IgG-HRP
Protocol: First, 2 μg/mL anti-FLAG antibody [Monoclonal ANTI-FLAG M2 antibody produced in mouse (manufactured by Sigma-Aldrich Co. LLC) diluted with PBS (manufactured by Nacalai Tesque, Inc.)] was dispensed at 50 μL/well to a 96-well plate for ELISA (manufactured by Nalge Nunc International), and the plate was left standing overnight at 4° C. for adsorption. After removal of the immobilization solution, 1% BSA-PBS (manufactured by Nacalai Tesque, Inc.) was added thereto at 300 μL/well, and the plate was left standing at room temperature for 1 hour for blocking and washed five times with Tween 20-PBS (manufactured by Wako Pure Chemical Industries Ltd.).
In order to reduce the backgrounds of measurement values, the diluted secondary antibody solution was mixed with 50 μg/mL of an anti-DNP mouse IgG1 antibody and incubated at room temperature for 1 hour for use.

[4] = target: B1; assay: SPR Biacore T100, captured antibody, Gas6 analyte, retest
Protocol: (§1) An anti-human IgG antibody was immobilized on a CM5 sensor chip (manufactured by GE Healthcare Japan Corp.) using Human Antibody Capture Kit (manufactured by GE Healthcare Japan Corp.) according to the attached manual. Each test antibody adjusted to 1 μg/mL was added for 10 seconds at a flow rate of 10 μL/min to flow cells. […] The measurement was performed by the […] method. The obtained sensorgram was analyzed using Bia Evaluation Software (manufactured by GE Healthcare Japan Corp.), and the kinetic constant of each antibody was calculated.
In this retest, unlike the test mentioned above, the number of antibodies to be measured and variations in the concentration of the analyte were decreased, and the assay was conducted for a short time (within several hours), instead of sufficiently leaving standing the analyte added to the vial. […] This minimizes the adsorption of the analyte to the vial and permits more accurate calculation of ka and KD values than that in the test mentioned above.

[5] = target: B1; assay: SPR Biacore T100, captured antibody, Gas6 analyte, first test
[6] = target: B1; assay: competitive ELISA, inhibition of hGas6-F binding to immobilised hAxl-hFc
[7] = target: B1; assay: SPR Biacore T100, captured antibody, Gas6 analyte, first test; reference line A-01 printed again at the head of the LV5 HV-series block (r24), same as r7
Protocol: as §1

What does the source list for B1?
luminescence intensity (Egr1-luciferase reporter, HEK293F forced to express human Sky) [1]: ~3 fold; luminescence intensity (Egr1-luciferase reporter, HEK293F forced to express human Mer) [2]: ~3 fold

B2: KM5320 chimeric antibody (antibody, V domains shown)
VH: QIQLVQSGPELKKPGETVKISCKASGYTFTNYGMNWVKQAPGKGLKWMGWINTETGEPTYSDDFKGRFAFSLETSATTAYLQINNLRNEDMATYFCAREDGYYGTLDYWGQGTSVTVSS
VL: SIVMTQTPKFLLVSAGDRVTITCKASQSVSNDVAWYQQKPGQSPKVLIYYASNRYTGVPDRFTGSGYGTDFTFTISTVQAEDLAVYFCQQDYSSPWTFGGGTKLEIK
notes: also called KM5320 chimera; A-01
What does the source list for B2?
EC50 [3]: 0.0113 µg/mL; Kd [4]: 730 pM; koff [4]: 0.000135 s⁻¹; kon [4]: 186000 M⁻¹ s⁻¹; Kd [5]: < 1870 pM; koff [5]: 0.000156 s⁻¹; kon [5]: > 83700 M⁻¹ s⁻¹; IC50 [6]: 0.0218 µg/mL; kon [7]: > 83700 M⁻¹ s⁻¹

Reference: US20180339041A1 (Kyowa Kirin, published 2018)
